No end group written: not given here.
Key:
[1] = molecular target: T1, p300 (CH1 domain, residues 330–420) (Homo sapiens, UniProt Q09472); test: ITC of chemically synthesized HIF-1α, CITED2 and CITIF peptides binding to p300; settings: pH 7.5
T1 construct: GST (N, cleaved yes); made in house; host or cells: E. coli BL21 pLysS (pGEX-4T1-p300)
Procedure: Raw ITC (upper) data and fitted thermogram (lower) (40 mM sodium phosphate, pH 7.5 100 mM NaCl, 1 mM DTT buffer using 5 μM protein in the cell and 60 μM ligand in the syringe at 35 °C) error bars represent the estimated integration errors; (b) Thermodynamic signatures for each interaction.
Figure S8 (a) Sequences of the truncated CITED2 peptides and isothermal titration […]
µM peptide in the syringe. All measurements were carried out 40 mM sodium phosphate, pH 7.5 100 mM NaCl, 1 mM DTT buffer at 35°C. Error bars represent the estimated integration […]
Table S2 Thermodynamic parameters for shortened CITED2 sequences. 68% confidence intervals for the fitting are shown in brackets. Data fitted to a single binding site model, fixed 1:1 stoichiometry with incompetent protein fraction as an adjustable parameter. […]
(§1) Isothermal titration calorimetry
(§2) Prior to ITC measurement p300 CH1 was dialysed or run on S75 column in the buffer used for titration, and the same buffer was used to dissolve the pure peptides. Experiments with […]
(§3) MicroCal iTC200 instrument with 10 µM protein in the cell and 100 µM ligand in the syringe at 37°C, using 2 µl injections and 120 or 180 s spacing between injections. Experiments with the […]
(§4) instrument using 3-5 µM protein in the cell and 40-60 µM ligand in the syringe at 35°C, using 5 µl injections and 180 s spacing between injections, for 40 injections. Titrations were performed in 40 mM Na-phosphate, pH 7.5 100 mM NaCl, 1 mM DTT buffer except for GFP-HIF-1α and variants for which 25 mM Tris-HCl, 150 mM NaCl, 1mM DTT, pH 7.4 buffer was used. Data were analysed using NITPIC3 and fitted using SEDPHAT4 to a single binding site model (fixed 1:1 stoichiometry), with baseline and incompetent protein fraction as adjustable parameters. 68 % confidence intervals for the fitted values were determined using the automatic confidence interval search implemented in SEDPHAT. Figures were prepared using […]

[2] = molecular target: T1, p300 (CH1 domain, residues 330–420); test: ITC of expressed HIF-1α, CITED2 and CITIF peptides binding to p300; settings: pH 7.5
Procedure: We hypothesized that it would be possible to enhance the affinity of HIF-1α for p300 by hybridising key regions of both CITED2 and HIF-1α (see later). We first measured the affinity of the parent peptides. A particular difficulty in comparing these peptide sequences is the different length used in different studies.[28,33,35,36] […]
data and fitted thermogram (lower) (40 mM sodium phosphate, pH 7.5 100 mM NaCl, 1 mM DTT buffer using 5 µM protein in the cell and 60 µM ligand in the syringe at 35°C); (b) Thermodynamic signatures for each interaction. […]
as §1, §2, §3, §4

[3] = molecular target: GST-p300 (p300 CH1 domain, residues 330–420) (Homo sapiens, UniProt Q09472); test: Fluorescence anisotropy direct titration of GFP-HIF-1α776–826 variants with GST-p300; assay type: binding; settings: 50 nM GFP-HIF-1α776–826 variant, GST-p300 serial dilution, 25 mM Tris–HCl, 150 mM NaCl, 1 mM DTT, pH 7.4, 27 °C, 1:1 model, ± standard error of fitted value, technical triplicates
GST-p300 (p300 CH1 domain, residues 330–420), sequence (Q09472 330-420): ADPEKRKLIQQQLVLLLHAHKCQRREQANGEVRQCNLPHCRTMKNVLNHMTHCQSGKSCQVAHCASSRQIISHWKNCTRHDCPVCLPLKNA
Source text: To experimentally compare the predictions, we carried out an in vitro biophysical study of several HIF-1α sequence variants. We assessed predicted hot residues and their interactions with p300 using the NMR structure to visualize the structural basis behind the predictions (See ESI, ^† Fig. S2). These analyses helped refine a first series of alanine variants to prepare. […] HIF-1α776–826 sequence variants were recombinantly prepared based on the predictions to test their binding to the recombinantly prepared p300 (Fig. 2). Given the length of the peptide ([…]), this was considered advantageous as it obviates the need to chemically synthesise, label and purify multiple variants. As the C-TAD domain is unstructured in isolation it was recombinantly expressed as a fusion protein with GFP. The green-fluorescent protein (GFP) tag was used for fluorescence anisotropy (FA) experiments to determine the binding affinity of HIF-1α776–826 C-TAD variants to p300. As the CH1 domain of p300 is a small domain of 11 kDa it was recombinantly expressed as a fusion protein with GST to increase its size and thus the signal to noise in the FA experiments. We established an assay where the interaction between GFP-tagged wt HIF-1α776–826 and GST-tagged p300 was monitored by FA, using the fluorescence of GFP. GST dimerises with single digit nM Kd[61] (and in our hands exists as a dimer in size exclusion chromatography analyses, see ESI, ^† Fig. S15 for protein characterization data), thus two molecules of GFP-HIF-1α could bind to the GST-p300 dimer (Fig. 2a). We make the assumption that each p300 binding site behaves independently and analyse the binding isotherm using a 1 : 1 model.
(§5) Fig. 2 Biophysical analyses on the effects of HIF-1α sequence variant p300 binding affinity. (a) schematic depicting the equilibrium for interaction of GFP-HIF-1α776–826 variants and GST-p300 as studied by fluorescence anisotropy; (b) representative fluorescence anisotropy titration data for sAV and mAV GFP-HIF-1α776–826 peptides interacting with GST-p300 (25 mM Tris–HCl, 150 mM NaCl, 1 mM DTT, pH 7.4), error bars represent standard deviation of technical triplicates; (c) raw ITC data (upper) and fitted thermogram (lower) for the interaction of GFP-HIF-1α776–826 peptides with p300 (37 °C in 25 mM Tris–HCl, 150 mM NaCl, 1 mM DTT, pH 7.4) using 10 μM p300 in the cell and 100 μM GFP-HIF-1α776–826 variant in the syringe; error bars represent estimated integration errors (d) thermodynamic signatures for each interaction. […]
7.4 buffer or dialysed into 25 mM Tris, 150 mM NaCl, 1 mM DTT pH 7.4 buffer.
GSTp300 protein was serially diluted in buffer (25 mM Tris-HCl, 150 mM NaCl, 1mM DTT, pH 7.4) and GFP-HIF-1α (50nM final concentration) was added, the plates were read after 0 min, 60 min, 4 h and 24 h, and incubated at room temperature in between. Each experiment was run in triplicate and the fluorescence anisotropy measured using an EnVision 2103 MultiLabel plate reader (Perkin Elmer) with excitation at 480 nm and emission at 535 nm (30 nm bandwidths). The recorded temperature for all measurements was 27°C ± 1°C. In parallel, a control experiment was performed in which no GFP-HIF was added and the volume made up with additional buffer, this blank was deducted from the raw data for each of the three repeats.
The intensity was calculated for each point using eqn (1) and used to calculated anisotropy […]
using eqn (2). From a plot of anisotropy against GST-p300 concentration the minimum and maximum anisotropies were obtained using a logistic sigmoidal fit in OriginPro 8.6. This allowed the conversion to fraction bound (eqn (3)). The data were then fitted using eqn (4) in OriginPro 8.6 to determine the dissociation constant, Kd. […]
5 µl injections and 180 s spacing between injections, for 40 injections. Titrations were performed in 40 mM Na-phosphate, pH 7.5 100 mM NaCl, 1 mM DTT buffer except for GFP- […]

[4] = molecular target: T1, p300 (CH1 domain, residues 330–420); test: ITC of GFP-HIF-1α776–826 variants binding to p300; settings: 37 °C, 25 mM Tris–HCl, 150 mM NaCl, 1 mM DTT, pH 7.4, 10 μM p300 in cell, 100 μM variant in syringe; for ΔH: 68% confidence interval in brackets
Procedure: as §5
Error bars represent standard deviation of technical triplicates.
Figure S5 Heat of dilution of (a) GFP titrated to buffer, (b) GFP titrated to p300 and (c) Raw ITC (upper) data and fitted thermogram (lower) for the interaction of GFP-HIF-1α776-826 D823A variant (37 °C in 25 mM Tris-HCl, 150 mM NaCl, 1mM DTT, pH 7.4) using 10 µM p300 in the cell and 100 µM HIF-1α variant in the syringe. ITC experiments were carried out using a Microcal ITC200i instrument (Malvern). All proteins were dialysed against the same buffer prior to experiment, buffer or 10 µM p300 was present in the cell and titrated with 100 µM GFP-HIF-1α or GFP loaded into the syringe using 16 x 2 μL injections with 120 s spacing between the injections. Heats of GFP or GFP-HIF-1α dilution were subtracted from the measurement raw data. Error bars represent the estimated integration errors. […]
as §1, §2, §3, §4

[5] = molecular target: T2, p300 CH1 domain (residues 330–420) (UniProt Q09472 330-420); test: ITC; peptide in the syringe, p300 in the cell (Fig. 4: 5 μM protein, 60 μM ligand); 40 mM sodium phosphate, pH 7.5, 100 mM NaCl, 1 mM DTT, 35 °C; single-site model, fixed 1:1 stoichiometry; settings: both partners purified
T2 construct: p300 CH1 domain, residues 330–420; The cleavage of GST is said for the anisotropy control; also called p300 with the GST tag cleaved; source: recombinantly expressed as a fusion protein with GST, GST tag cleaved
T2 sequence (Q09472 330-420): as above

[6] = molecular target: T2, p300 CH1 domain (residues 330–420); test: ITC; 10 μM p300 in the cell, 100 μM GFP-HIF-1α 776–826 variant in the syringe; 37 °C; 25 mM Tris–HCl, 150 mM NaCl, 1 mM DTT, pH 7.4; fixed 1:1 stoichiometry; settings: both partners purified
[7] = molecular target: GST-tagged p300 CH1 domain (residues 330–420) (UniProt Q09472); test: fluorescence polarisation; fluorescence anisotropy by the fluorescence of GFP; GFP-HIF-1α 776–826 variants with GST-p300; 25 mM Tris–HCl, 150 mM NaCl, 1 mM DTT, pH 7.4; 1:1 model, each p300 site of the GST dimer taken as independent

T1 sequence (Q09472 330-420): as above

Molecule: Ac-DEEVLMSLVIEMGLDRIKELPELWLGQNEFDFMTDF-NH2 [CITED224–259]
- ΔH, synthetic peptides [1]: -51.9 kJ/mol
- ΔS, synthetic peptides [1]: −3.6 cal mol^−1 K^−1
- ΔH, expressed peptides [2]: -51.9 kJ/mol
- ΔS, expressed peptides [2]: −6.2 cal mol^−1 K^−1

Molecule: Ac-NVIDTDFIDEEVLMSLVIEMGLDRIKELPELWLGQNEFDFMTDFVCKQQPSRVS-NH2 [CITED216–269]
- ΔH, synthetic peptides [1]: -55.2 kJ/mol
- ΔS, synthetic peptides [1]: −10.0 cal mol^−1 K^−1
- ΔH, expressed peptides [2]: -55.6 kJ/mol
- ΔS, expressed peptides [2]: −7.5 cal mol^−1 K^−1

Molecule: D823A: GFP-HIF-1α776–826 C-TAD single alanine variant D823A ({GFP}-SDLACRLLGQSMDESGLPQLTSYDCEVNAPIQGSRNLLQGEELLRALAQVN; cysteine pairing not given here)
- Kd [3]: 0.192 ± 0.017 µM
- ΔS [4]: −12.2 cal mol^−1 K^−1
- ΔH [4]: -54.4 kJ/mol

Molecule: E801A: GFP-HIF-1α776–826 C-TAD single alanine variant E801A ({GFP}-SDLACRLLGQSMDESGLPQLTSYDCAVNAPIQGSRNLLQGEELLRALDQVN; cysteine pairing not given here)
- Kd [3]: 0.227 ± 0.078 µM
- ΔS [4]: −9.5 cal mol^−1 K^−1
- ΔH [4]: -51 kJ/mol

Molecule: HIF-1α L792A: GFP-HIF-1α776–826 C-TAD single alanine variant L792A ({GFP}-SDLACRLLGQSMDESGAPQLTSYDCEVNAPIQGSRNLLQGEELLRALDQVN; cysteine pairing not given here)
- ΔS [4]: −14.5 ^a cal mol^−1 K^−1
- ΔH [4]: −13.6 ^a (−13.9, −13.2) kcal mol^−1

B1: CITIF, HIF-1α-CITED2 hybrid sequence, chemically synthesized peptide (peptide)
chain: Ac-DEEVLMSLVIEMGLDRIKELPQLTSYDCEVNAPIQGSRNLLQGEELLRALDQVN-NH2
- dH [5]: -94.1 kJ/mol

B2: HIF-1α 786–826, chemically synthesized peptide (peptide, UniProt Q16665 786-826, looked up)
peptide: Ac-SMDESGLPQLTSYDCEVNAPIQGSRNLLQGEELLRALDQVN-NH2
notes: source: synthetic peptide (chemical synthesis, see ESI)
- dH [5]: -108 kJ/mol

B3: GFP-tagged wt HIF-1α 776–826 C-TAD (domain or fragment, UniProt Q16665 776-826, looked up)
chain: SDLACRLLGQSMDESGLPQLTSYDCEVNAPIQGSRNLLQGEELLRALDQVN
notes: source: recombinantly expressed as a fusion protein with GFP
- Kd [6]: 0.086 µM
- dH [6]: -72.4 kJ/mol
- Kd [7]: 0.055 µM

B4: GFP-HIF-1α 776–826 E801A (domain or fragment, UniProt Q16665 776-826, looked up)
chain: SDLACRLLGQSMDESGLPQLTSYDCAVNAPIQGSRNLLQGEELLRALDQVN
notes: As m3 with the stated change; also called HIF-1α E801A; source: recombinantly expressed as a fusion protein with GFP
- Kd [6]: 0.359 µM
- dH [6]: -51 kJ/mol
- Kd [7]: 0.227 µM

B5: GFP-HIF-1α 776–826 D823A (domain or fragment, UniProt Q16665 776-826, looked up)
chain: SDLACRLLGQSMDESGLPQLTSYDCEVNAPIQGSRNLLQGEELLRALAQVN
notes: As m3 with the stated change; also called HIF-1α D823A; source: recombinantly expressed as a fusion protein with GFP
- Kd [6]: 0.369 µM
- dH [6]: -54.4 kJ/mol
- Kd [7]: 0.192 µM

B6: GFP-HIF-1α 776–826 L792A (domain or fragment, UniProt Q16665 776-826, looked up)
chain: SDLACRLLGQSMDESGAPQLTSYDCEVNAPIQGSRNLLQGEELLRALDQVN
notes: As m3 with the stated change; measured by ITC only; also called HIF-1α L792A; source: recombinantly expressed as a fusion protein with GFP
- Kd [6]: 0.386 µM
- dH [6]: -56.9 kJ/mol

B7: HIF-1α 776–826, chemically synthesized peptide (peptide, UniProt Q16665 776-826, looked up)
peptide: Ac-SDLACRLLGQSMDESGLPQLTSYDCEVNAPIQGSRNLLQGEELLRALDQVN-NH2
modifications: cysteine pairing not given here
notes: as for B2
- Kd [5]: 0.0522 µM
- dH [5]: -95.8 kJ/mol
